B1: REGN10989 Fab (Fab, V domains shown)
VH: QVQLVQSGAEVKKPGASVKVSCKASGYIFTGYYMHWVRQAPGQGLEWMGWINPNSGGANYAQKFQGRVTLTRDTSITTVYMELSRLRFDDTAVYYCARGSRYDWNQNNWFDPWGQGTLVTVSS
VL: QSALTQPASVSGSPGQSITISCTGTSSDVGTYNYVSWYQQHPGKAPKLMIFDVSNRPSGVSDRFSGSKSGNTASLTISGLQAEDEADYYCSSFTTSSTVVFGGGTKLTVL
B2: REGN10985 Fab (Fab, V domains shown)
VH: EVQLVESGGGLVQPGRSLRLSCAASGFTFDDYAMHWVRQAPGKGLEWVSGISWNRGSIGYADSVKGRFTISRDNAKNSLYLQMSSLRAEDTALYYCAKDGERWDSVVVPSARNGMDVWGQGTTVTVSS
VL: QSVLTQPPSVSGAPGQRVTISCTGSSSNIGAGYDVHWYQQLPGTAPKLLIYGNSNRPSGVPDRFSGSKSGTSASLAITGLQAEDEADYYCQSYDSSLSGSYVFGTGTKVTVL

Biological target: SARS-CoV-2 spike receptor binding domain (SARS-CoV-2, UniProt P0DTC2)
Assay: cryo-EM structure

Row | Binder | binding result
1 | B1 | binds
2 | B2 | binds

From publication PMC8179113 (Cell, 2021)
